Test results from patent US20220348894, “DNA MODIFYING ENZYMES AND ACTIVE FRAGMENTS AND VARIANTS THEREOF AND METHODS OF USE” (LifeEDIT Therapeutics, Inc., published 2022).

Tests used:
Details in all cases: tags: SV40 NLS, 3xFLAG, nucleoplasmin NLS
[1] = target: LPG50177-nAPG07433.1 (synthetic); test: cell_activity; mutated reads, HEK293FT
Experimental: (§1) 500 ng of plasmid comprising an expression cassette comprising a coding sequence for a fusion protein shown in Table 10 and 500 ng of plasmid comprising an expression cassette encoding for an sgRNA shown in Table 11 were co-transfected into HEK293FT cells at 75-90% confluency in 24-well plates using Lipofectamine 2000 reagent (Life Technologies). Cells were then incubated at 37° C. for 72 h. Following incubation, genomic DNA was then extracted using NucleoSpin 96 Tissue (Macherey-Nagel) following the manufacturer's protocol. The genomic region flanking the targeted genomic site was PCR amplified using the primers in Table 11 and products were purified using ZR-96 DNA Clean and Concentrator (Zymo Research) following the manufacturer's protocol. The purified PCR products underwent Next Generation Sequencing on Illumina MiSeq. Typically, 100,000 of 250 bp paired-end reads (2×100,000 reads) are generated per amplicon. The reads were analyzed using CRISPResso (Pinello, et al. 2016 Nature Biotech, 34:695-697) to calculate the rates of editing. Output alignments were analyzed for INDEL formation or introduction of specific adenine mutations.
(§2) The editing rate for adenines within or proximal to the target sequence is indicated. “A5” indicates, for example, an adenine at position 5 of the target sequence. The position of each nucleotide in the target sequence was determined by numbering the first nucleotide in the target sequence closest to the PAM (which is 3′ of the target for APG07433.1) as position 1, and the position number increases in the 5′ direction away from the PAM sequence. The tables also show which nucleotide the adenine was changed to, and at what rate.

[2] = target: LPG50167-nAPG07433.1 (synthetic); test: cell_activity; mutated reads, HEK293FT
Experimental: as §1, §2

[3] = target: LPG50152-nAPG07433.1 (synthetic); test: cell_activity; mutated reads, HEK293FT
Experimental: as §1, §2

[4] = target: LPG50175-nAPG07433.1 (synthetic); test: cell_activity; mutated reads, HEK293FT
Experimental: as §1, §2

[5] = target: LPG50170-nAPG07433.1 (synthetic); test: cell_activity; mutated reads, HEK293FT
Experimental: as §1, §2

[6] = target: LPG50179-nAPG07433.1 (synthetic); test: cell_activity; mutated reads, HEK293FT
Experimental: as §1, §2

[7] = target: LPG50160-nAPG07433.1 (synthetic); test: cell_activity; mutated reads, HEK293FT
Experimental: as §1, §2

[8] = target: LPG50157-nAPG07433.1 (synthetic); test: cell_activity; mutated reads, HEK293FT
Experimental: as §1, §2

[9] = target: LPG50168-nAPG07433.1 (synthetic); test: cell_activity; mutated reads, HEK293FT
Experimental: as §1, §2

[10] = target: LPG50182-nAPG07433.1 (synthetic); test: cell_activity; mutated reads, HEK293FT
Experimental: as §1, §2

[11] = target: LPG50171-nAPG07433.1 (synthetic); test: cell_activity; mutated reads, HEK293FT
Experimental: as §1, §2

[12] = target: LPG50143-nAPG07433.1 (synthetic); test: cell_activity; mutated reads, HEK293FT
Experimental: as §1, §2

[13] = target: LPG50149-nAPG07433.1 (synthetic); test: cell_activity; mutated reads, HEK293FT
Experimental: as §1, §2

[14] = target: LPG50166-nAPG07433.1 (synthetic); test: cell_activity; mutated reads, HEK293FT
Experimental: as §1, §2

[15] = target: LPG50156-nAPG07433.1 (synthetic); test: cell_activity; mutated reads, HEK293FT
Experimental: as §1, §2

[16] = target: LPG50169-nAPG07433.1 (synthetic); test: cell_activity; mutated reads, HEK293FT
Experimental: as §1, §2

[17] = target: LPG50147-nAPG07433.1 (synthetic); test: cell_activity; mutated reads, HEK293FT
Experimental: as §1, §2

[18] = target: LPG50159-nAPG07433.1 (synthetic); test: cell_activity; mutated reads, HEK293FT
Experimental: as §1, §2

[19] = target: LPG50181-nAPG07433.1 (synthetic); test: cell_activity; mutated reads, HEK293FT
Experimental: as §1, §2

[20] = target: LPG50162-nAPG07433.1 (synthetic); test: cell_activity; mutated reads, HEK293FT
Experimental: as §1, §2

[21] = target: LPG50142-nAPG07433.1 (synthetic); test: cell_activity; mutated reads, HEK293FT
Experimental: as §1, §2

[22] = target: LPG50151-nAPG07433.1 (synthetic); test: cell_activity; mutated reads, HEK293FT
Experimental: as §1, §2

[23] = target: LPG50164-nAPG07433.1 (synthetic); test: cell_activity; mutated reads, HEK293FT
Experimental: as §1, §2

[24] = target: LPG50155-nAPG07433.1 (synthetic); test: cell_activity; mutated reads, HEK293FT
Experimental: as §1, §2

[25] = target: LPG50165-nAPG07433.1 (synthetic); test: cell_activity; mutated reads, HEK293FT
Experimental: as §1, §2

[26] = target: LPG50144-nAPG07433.1 (synthetic); test: cell_activity; mutated reads, HEK293FT
Experimental: as §1, §2

[27] = target: LPG50173-nAPG07433.1 (synthetic); test: cell_activity; mutated reads, HEK293FT
Experimental: as §1, §2

[28] = target: LPG50146-nAPG07433.1 (synthetic); test: cell_activity; mutated reads, HEK293FT
Experimental: as §1, §2

[29] = target: LPG50176-nAPG07433.1 (synthetic); test: cell_activity; mutated reads, HEK293FT
Experimental: as §1, §2

[30] = target: LPG50150-nAPG07433.1 (synthetic); test: cell_activity; mutated reads, HEK293FT
Experimental: as §1, §2

[31] = target: LPG50163-nAPG07433.1 (synthetic); test: cell_activity; mutated reads, HEK293FT
Experimental: as §1, §2

[32] = target: LPG50141-nAPG07433.1 (synthetic); test: cell_activity; mutated reads, HEK293FT
Experimental: as §1, §2

[33] = target: LPG50174-nAPG07433.1 (synthetic); test: cell_activity; mutated reads, HEK293FT
Experimental: as §1, §2

[34] = target: LPG50145-nAPG07433.1 (synthetic); test: cell_activity; mutated reads, HEK293FT
Experimental: as §1, §2

[35] = target: LPG50178-nAPG07433.1 (synthetic); test: cell_activity; mutated reads, HEK293FT
Experimental: as §1, §2

[36] = target: LPG50158-nAPG07433.1 (synthetic); test: cell_activity; mutated reads, HEK293FT
Experimental: as §1, §2

[37] = target: LPG50140-nAPG07433.1 (synthetic); test: cell_activity; mutated reads, HEK293FT; PAM 3' of target
Experimental: as §1, §2

[38] = target: LPG50148-nAPG07433.1 (synthetic); test: as above
Experimental: as §1, §2

[39] = target: LPG50153-nAPG07433.1 (synthetic); test: cell_activity; mutated reads, HEK293FT
Experimental: as §1, §2

[40] = target: LPG50180-nAPG07433.1 (synthetic); test: cell_activity; mutated reads, HEK293FT
Experimental: as §1, §2

[41] = target: LPG50154-nAPG07433.1 (synthetic); test: cell_activity; mutated reads, HEK293FT
Experimental: as §1, §2

[42] = target: LPG50161-nAPG07433.1 (synthetic); test: cell_activity; mutated reads, HEK293FT
Experimental: as §1, §2

[43] = target: LPG50172-nAPG07433.1 (synthetic); test: cell_activity; mutated reads, HEK293FT
Experimental: as §1, §2

Chain of LPG50148-nAPG07433.1 (synthetic) (chain, as listed by the source): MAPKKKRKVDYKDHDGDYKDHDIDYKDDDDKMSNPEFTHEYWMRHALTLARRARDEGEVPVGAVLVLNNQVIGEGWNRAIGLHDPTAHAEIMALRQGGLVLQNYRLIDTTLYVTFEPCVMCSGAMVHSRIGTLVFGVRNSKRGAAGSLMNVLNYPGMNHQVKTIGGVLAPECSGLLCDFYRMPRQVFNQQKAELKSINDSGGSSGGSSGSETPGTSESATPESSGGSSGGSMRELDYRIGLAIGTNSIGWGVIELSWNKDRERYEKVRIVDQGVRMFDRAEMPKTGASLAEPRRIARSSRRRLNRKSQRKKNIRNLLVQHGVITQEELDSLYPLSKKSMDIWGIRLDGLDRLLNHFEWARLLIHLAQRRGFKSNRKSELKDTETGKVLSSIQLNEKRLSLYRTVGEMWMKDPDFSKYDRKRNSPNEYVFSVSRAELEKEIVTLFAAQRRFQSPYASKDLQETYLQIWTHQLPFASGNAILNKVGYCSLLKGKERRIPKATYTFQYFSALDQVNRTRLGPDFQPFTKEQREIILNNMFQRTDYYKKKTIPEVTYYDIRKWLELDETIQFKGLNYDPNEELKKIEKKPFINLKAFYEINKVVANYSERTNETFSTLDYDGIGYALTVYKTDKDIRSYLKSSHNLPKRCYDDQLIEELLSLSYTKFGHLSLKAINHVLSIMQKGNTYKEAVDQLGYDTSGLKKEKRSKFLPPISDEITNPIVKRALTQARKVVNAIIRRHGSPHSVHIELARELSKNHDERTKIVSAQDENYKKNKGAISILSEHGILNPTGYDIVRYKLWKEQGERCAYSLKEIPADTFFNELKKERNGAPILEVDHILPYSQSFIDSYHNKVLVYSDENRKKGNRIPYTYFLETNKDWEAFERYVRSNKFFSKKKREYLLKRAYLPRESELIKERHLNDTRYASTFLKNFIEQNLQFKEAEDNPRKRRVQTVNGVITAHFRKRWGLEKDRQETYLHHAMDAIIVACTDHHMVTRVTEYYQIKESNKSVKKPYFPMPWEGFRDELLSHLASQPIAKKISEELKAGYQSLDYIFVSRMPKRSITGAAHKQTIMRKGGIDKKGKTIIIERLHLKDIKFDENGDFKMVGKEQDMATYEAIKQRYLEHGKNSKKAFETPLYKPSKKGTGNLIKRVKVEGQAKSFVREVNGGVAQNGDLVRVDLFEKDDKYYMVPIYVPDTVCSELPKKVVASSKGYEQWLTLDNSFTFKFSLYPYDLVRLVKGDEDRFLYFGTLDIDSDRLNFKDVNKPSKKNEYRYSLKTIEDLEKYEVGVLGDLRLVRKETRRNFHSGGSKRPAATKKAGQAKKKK
Chain of LPG50176-nAPG07433.1 (synthetic) (chain, as listed by the source): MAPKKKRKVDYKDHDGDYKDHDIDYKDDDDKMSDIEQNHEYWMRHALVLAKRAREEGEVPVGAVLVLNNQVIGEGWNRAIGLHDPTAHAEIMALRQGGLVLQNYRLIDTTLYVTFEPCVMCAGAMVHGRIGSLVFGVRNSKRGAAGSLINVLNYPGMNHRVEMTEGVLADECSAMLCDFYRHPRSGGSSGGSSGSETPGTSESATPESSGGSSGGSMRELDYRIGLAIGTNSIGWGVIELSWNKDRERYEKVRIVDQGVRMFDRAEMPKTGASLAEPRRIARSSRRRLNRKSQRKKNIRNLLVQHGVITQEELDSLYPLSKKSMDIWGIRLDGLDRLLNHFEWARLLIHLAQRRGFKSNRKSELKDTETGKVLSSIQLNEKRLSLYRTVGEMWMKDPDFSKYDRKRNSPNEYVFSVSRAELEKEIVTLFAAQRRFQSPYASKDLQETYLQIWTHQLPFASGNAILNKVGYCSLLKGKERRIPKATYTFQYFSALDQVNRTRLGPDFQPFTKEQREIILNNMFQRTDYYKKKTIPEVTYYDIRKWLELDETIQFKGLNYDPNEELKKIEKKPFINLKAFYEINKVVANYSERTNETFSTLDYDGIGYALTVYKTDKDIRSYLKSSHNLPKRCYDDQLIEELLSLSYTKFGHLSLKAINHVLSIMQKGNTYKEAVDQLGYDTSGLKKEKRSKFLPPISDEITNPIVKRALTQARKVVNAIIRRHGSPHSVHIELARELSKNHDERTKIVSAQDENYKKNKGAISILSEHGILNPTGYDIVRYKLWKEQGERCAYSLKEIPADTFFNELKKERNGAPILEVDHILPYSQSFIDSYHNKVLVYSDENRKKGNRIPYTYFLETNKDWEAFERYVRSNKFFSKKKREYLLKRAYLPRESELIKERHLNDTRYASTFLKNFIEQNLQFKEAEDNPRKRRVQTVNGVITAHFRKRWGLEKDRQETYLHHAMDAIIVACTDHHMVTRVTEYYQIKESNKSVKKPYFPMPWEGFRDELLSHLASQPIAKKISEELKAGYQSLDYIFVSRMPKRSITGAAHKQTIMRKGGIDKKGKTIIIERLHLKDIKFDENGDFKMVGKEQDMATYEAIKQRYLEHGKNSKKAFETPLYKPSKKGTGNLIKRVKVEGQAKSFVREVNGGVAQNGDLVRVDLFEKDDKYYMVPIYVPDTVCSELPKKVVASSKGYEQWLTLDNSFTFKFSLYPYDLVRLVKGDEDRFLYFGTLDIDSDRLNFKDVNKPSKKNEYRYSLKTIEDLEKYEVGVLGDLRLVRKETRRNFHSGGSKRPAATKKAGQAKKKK
Chain of LPG50140-nAPG07433.1 (synthetic) (chain, as listed by the source): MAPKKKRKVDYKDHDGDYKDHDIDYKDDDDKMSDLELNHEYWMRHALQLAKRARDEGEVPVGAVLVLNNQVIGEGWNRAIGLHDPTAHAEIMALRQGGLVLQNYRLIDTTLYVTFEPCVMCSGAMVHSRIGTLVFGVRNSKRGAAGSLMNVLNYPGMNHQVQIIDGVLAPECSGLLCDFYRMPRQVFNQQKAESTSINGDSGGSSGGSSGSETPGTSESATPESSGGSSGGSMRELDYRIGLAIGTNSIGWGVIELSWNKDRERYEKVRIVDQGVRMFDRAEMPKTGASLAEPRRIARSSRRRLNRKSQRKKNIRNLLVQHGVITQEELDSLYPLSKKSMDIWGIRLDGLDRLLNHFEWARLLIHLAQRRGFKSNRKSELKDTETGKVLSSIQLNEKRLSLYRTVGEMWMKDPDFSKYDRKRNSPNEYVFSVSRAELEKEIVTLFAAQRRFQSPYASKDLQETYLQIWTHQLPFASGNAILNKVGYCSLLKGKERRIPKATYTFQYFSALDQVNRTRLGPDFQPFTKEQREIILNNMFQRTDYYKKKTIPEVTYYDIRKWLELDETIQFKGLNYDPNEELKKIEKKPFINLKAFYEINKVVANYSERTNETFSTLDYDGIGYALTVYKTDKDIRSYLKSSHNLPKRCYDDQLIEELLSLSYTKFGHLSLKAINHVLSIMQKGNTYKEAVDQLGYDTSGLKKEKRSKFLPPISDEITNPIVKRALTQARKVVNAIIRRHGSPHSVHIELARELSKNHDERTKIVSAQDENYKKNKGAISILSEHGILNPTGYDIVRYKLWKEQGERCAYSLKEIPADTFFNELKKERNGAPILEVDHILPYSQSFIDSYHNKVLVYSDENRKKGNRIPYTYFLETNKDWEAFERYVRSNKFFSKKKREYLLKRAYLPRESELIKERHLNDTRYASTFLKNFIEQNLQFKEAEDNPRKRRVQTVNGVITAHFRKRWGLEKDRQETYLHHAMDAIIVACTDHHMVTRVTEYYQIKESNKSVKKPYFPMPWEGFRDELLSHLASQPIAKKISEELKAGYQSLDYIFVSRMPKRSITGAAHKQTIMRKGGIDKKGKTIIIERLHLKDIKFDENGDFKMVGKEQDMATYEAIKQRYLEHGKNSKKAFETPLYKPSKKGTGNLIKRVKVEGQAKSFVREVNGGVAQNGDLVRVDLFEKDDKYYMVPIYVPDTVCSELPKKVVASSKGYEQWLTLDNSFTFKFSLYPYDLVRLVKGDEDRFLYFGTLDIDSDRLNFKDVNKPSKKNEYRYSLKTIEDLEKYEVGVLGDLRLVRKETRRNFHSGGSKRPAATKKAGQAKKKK

B1: SGN000186 sgRNA (Table 11) ; SGN000186 target (Table 11) (ssRNA ; dsDNA)
RNA: GGACAGUGCGCAUCUCCCUGGUCAUAGUUCCAUUAAAGCCAAAAGUGGCUUUGAUGUUUCUAUGAUAAGGGUUUCGACCCGUGGCGUCGGGGAUCGCCUGCCCAUUGAAAUGGGCUUCUCCCCAUUUAUU
DNA 1: GGACAGTGCGCATCTCCCTG
DNA 2: CAGGGAGATGCGCACTGTCC
Q: Which activity [1] does the source give for B1 here?
A: Its activity is 11%.

Q: What about the activity [2] of the same binder?
A: The activity was 8%.

Q: And the activity [3]?
A: The activity was 18%.

Q: What about the activity [4] of the same binder?
A: The activity was 14%.

Q: And the activity [5]?
A: Its activity is 12.2%.

Q: What about the activity [6] of the same binder?
A: Its activity is 12.5%.

Q: What about the activity [7] of the same binder?
A: The activity was 16%.

Q: What about the activity [8] of the same binder?
A: The activity was 12.2%.

Q: And the activity [9]?
A: Its activity is 7%.

Q: And the activity [10]?
A: Its activity is 9%.

Q: And the activity [11]?
A: Its activity is 12.7%.

Q: What about the activity [12] of the same binder?
A: The activity was 10.6%.

Q: What about the activity [13] of the same binder?
A: Its activity is 22.1%.

Q: And the activity [14]?
A: The activity was 8%.

Q: What about the activity [15] of the same binder?
A: Its activity is 12.7%.

Q: What about the activity [16] of the same binder?
A: The activity was 13%.

Q: And the activity [17]?
A: Its activity is 12.6%.

Q: What about the activity [18] of the same binder?
A: The activity was 6.99%.

Q: And the activity [19]?
A: Its activity is 12.6%.

Q: And the activity [20]?
A: Its activity is 14%.

Q: What about the activity [21] of the same binder?
A: The activity was 14.1%.

Q: What about the activity [22] of the same binder?
A: The activity was 7.76%.

Q: And the activity [23]?
A: The activity was 7.38%.

Q: And the activity [24]?
A: Its activity is 17%.

Q: And the activity [25]?
A: Its activity is 9.88%.

Q: And the activity [26]?
A: The activity was 12.2%.

Q: And the activity [27]?
A: The activity was 7.88%.

Q: What about the activity [28] of the same binder?
A: Its activity is 17.8%.

Q: What about the activity [29] of the same binder?
A: The activity was 7%.

Q: What about the activity [30] of the same binder?
A: The activity was 23.7%.

Q: What about the activity [31] of the same binder?
A: Its activity is 10%.

Q: What about the activity [32] of the same binder?
A: The activity was 9.79%.

Q: What about the activity [33] of the same binder?
A: Its activity is 8%.

Q: What about the activity [34] of the same binder?
A: Its activity is 9.93%.

Q: What about the activity [35] of the same binder?
A: Its activity is 12.9%.

Q: And the activity [36]?
A: Its activity is 4.91%.

Q: What about the activity [37] of the same binder?
A: The activity was 18.8%.

Q: And the activity [38]?
A: The activity was 32.6%.

B2: SGN001681 sgRNA ; SGN001681 target (ssRNA ; dsDNA)
RNA: CCGUGCCUUGACCUACCCUGGUCAUAGUUCCAUUAAAGCCAAAAGUGGCUUUGAUGUUUCUAUGAUAAGGGUUUCGACCCGUGGCGUCGGGGAUCGCCUGCCCAUUGAAAUGGGCUUCUCCCCAUUUAUU
DNA 1: CCGTGCCTTGACCTACCCTG
DNA 2: CAGGGTAGGTCAAGGCACGG
Q: With B2 as the binder, how does the activity [39] read?
A: Its activity is 1.12%.

Q: And the activity [40]?
A: Its activity is 1.8%.

Q: What about the activity [41] of the same binder?
A: The activity was 2.26%.

Q: What about the activity [42] of the same binder?
A: The activity was 1.47%.

Q: And the activity [43]?
A: The activity was 1.78%.

Q: What about the activity [38] of the same binder?
A: The activity was 49.4%.
